According to EP1918299A1 (UNIVERSITE DE GENEVE, dated 2008):

T1: myc-tagged version of Necl-3 (pNecl-3-myc) (human, UniProt Q8N3J6 25-435)
T1 construct: On S2 cells in the aggregation assay; not shown: C-terminal myc-His tag of vector pcDNA3.1/myc-His
T1 sequence: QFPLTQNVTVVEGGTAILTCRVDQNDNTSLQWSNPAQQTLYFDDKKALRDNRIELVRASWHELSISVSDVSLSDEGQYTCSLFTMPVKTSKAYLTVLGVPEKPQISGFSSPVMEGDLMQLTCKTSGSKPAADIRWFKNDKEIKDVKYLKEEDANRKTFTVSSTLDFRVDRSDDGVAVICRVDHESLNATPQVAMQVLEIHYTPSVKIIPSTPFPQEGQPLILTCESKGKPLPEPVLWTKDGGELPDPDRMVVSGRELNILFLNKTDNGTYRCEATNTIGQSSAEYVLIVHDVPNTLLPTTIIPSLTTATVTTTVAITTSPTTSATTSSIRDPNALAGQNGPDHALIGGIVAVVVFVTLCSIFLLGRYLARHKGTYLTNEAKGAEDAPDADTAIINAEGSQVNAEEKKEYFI

T2: Necl-1-GFP (human Necl-1 fused to GFP at its carboxy-terminus) (human, UniProt Q8N126 25-398)
T2 construct: Expressed in S2 cells; In lysate in the western blot; also called pMT-Necl-1-GFP; not shown: GFP of vector pEGFP-N1 (BD Biosciences Clontech), C-terminal fusion
T2 sequence: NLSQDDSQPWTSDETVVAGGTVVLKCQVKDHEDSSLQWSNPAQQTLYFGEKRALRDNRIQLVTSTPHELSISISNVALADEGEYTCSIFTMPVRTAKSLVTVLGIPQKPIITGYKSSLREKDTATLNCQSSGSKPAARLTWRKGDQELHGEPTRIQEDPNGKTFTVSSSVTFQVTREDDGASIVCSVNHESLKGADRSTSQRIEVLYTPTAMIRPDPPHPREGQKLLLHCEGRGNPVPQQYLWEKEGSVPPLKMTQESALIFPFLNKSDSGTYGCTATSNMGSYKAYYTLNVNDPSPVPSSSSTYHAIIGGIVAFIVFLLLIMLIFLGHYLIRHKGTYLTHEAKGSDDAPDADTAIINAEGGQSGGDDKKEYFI

B1: Necl-2-GFP (human Necl-2 fused to GFP at its carboxy-terminus) (other)
chain: QNLFTKDVTVIEGEVATISCQVNKSDDSVIQLLNPNRQTIYFRDFRPLKDSRFQLLNFSSSELKVSLTNVSISDEGRYFCQLYTDPPQESYTTITVLVPPRNLMIDIQKDTAVEGEEIEVNCTAMASKPATTIRWFKGNTELKGKSEVEEWSDMYTVTSQLMLKVHKEDDGVPVICQVEHPAVTGNLQTQRYLEVQYKPQVHIQMTYPLQGLTREGDALELTCEAIGKPQPVMVTWVRVDDEMPQHAVLSGPNLFINNLNKTDNGTYRCEASNIVGKAHSDYMLYVYDPPTTIPPPTTTTTTTTTTTTTILTIITDSRAGEEGSIRAVDHAVIGGVVAVVVFAMLCLLIILGRYFARHKGTYFTHEAKGADDAADADTAIINAEGGQNNSEEKKEYFI
notes: Expressed in S2 cells; on cells in aggregation assays, in cell lysate in the western blot and the pull-down; also called pMT-Necl-2-GFP; not shown: GFP of vector pEGFP-N1 (BD Biosciences Clontech), C-terminal fusion
B2: Necl-3-GFP (human Necl-3 fused to GFP at its carboxy-terminus) (other)
chain: T1 sequence
notes: Expressed in Drosophila S2 cells; on cells in the aggregation assays, in crude cell lysate in the western blot; also called pMT-Necl-3-GFP; not shown: GFP of vector pEGFP-N1 (BD Biosciences Clontech), C-terminal fusion
B3: Necl-4-DsRed2 (human Necl-4 fused to DsRed2) (other)
chain: QEVQTENVTVAEGGVAEITCRLHQYDGSIVVIQNPARQTLFFNGTRALKDERFQLEEFSPRRVRIRLSDARLEDEGGYFCQLYTEDTHHQIATLTVLVAPENPVVEVREQAVEGGEVELSCLVPRSRPAATLRWYRDRKELKGVSSSQENGKVWSVASTVRFRVDRKDDGGIIICEAQNQALPSGHSKQTQYVLDVQYSPTARIHASQAVVREGDTLVLTCAVTGNPRPNQIRWNRGNESLPERAEAVGETLTLPGLVSADNGTYTCEASNKHGHARALYVLVVYDPGAVVEAQTSVPYAIVGGILALLVFLIICVLVGMVWCSVRQKGSYLTHEASGLDEQGEAREAFLNGSDGHKRKEEFFI
notes: On S2 cells; also called pMT-Necl-4-DsRed2; not shown: DsRed2 (Discosoma Red) of pMT-DsRed2, C-terminal fusion
B4: Necl-4-GFP (human Necl-4 fused to GFP at its carboxy-terminus) (other)
chain: B3 chain
notes: In lysate in the western blot; also called pMT-Necl-4-GFP; not shown: GFP of vector pEGFP-N1 (via pMT-GFP), C-terminal fusion
B5: Necl-1-DsRed2 (human Necl-1 fused to DsRed2) (other)
chain: T2 sequence
notes: On S2 cells; also called pMT-Necl-1-DsRed2; not shown: DsRed2 (Discosoma Red) of vector pDsRed2-N1 (BD Biosciences Clontech), C-terminal fusion

Assays:
Experiment in all cases: S2 cell aggregation assay
[1] = biological target: T1, myc-tagged version of Necl-3 …
[2] = biological target: the molecule itself
[3] = biological target: B2
[4] = biological target: T2, Necl-1-GFP (human Necl-1 fused to GFP …)
[5] = biological target: B1

| Binder | binding result [2] | binding result [3] | further results |
| --- | --- | --- | --- |
| B1 | – | – | binding result [1]: binds |
| B2 | binds | – | – |
| B3 | – | binds | binding result [4]: binds; binding result [5]: binds |
| B4 | binds | – | – |
| B5 | – | binds | – |
